Test results from US20250228954A1, “Designing Antisense Oligonucleotide Delivery Peptides by Interpretable Machine Learning” (Sarepta Therapeutics, Inc., priority 2020, published 2025).

Legend:
[1] = tested on: HeLa 654 cells; assay: Cytotoxicity by gated cell count and propidium iodide staining in flow cytometry; format: cell-based, human; details: at the concentrations tested in dose-response, 22 h
Description: The different modules led to several noticeable trends in the level of cellular fluorescence (FIG. 6). When module 2 was DPV6, the overall construct consistently led to high fluorescence, regardless of which peptides were placed in module 3 and 4. However, when either pVEC or TP10 was placed in module 2, minor cellular fluorescence was observed. A gated cell count was used during flow cytometry as an indirect read-out to control for the toxicity of the compounds. Highly toxic compounds led to a reduction in overall cell count and non-viable cells were gated out based upon propidium iodide staining. In this experiment, it was observed that when the module 3 peptide was the nuclear localization sequence KRVK, lower cell counts were consistently observed.
In the same format as described above, HeLa 654 cells were treated with varying concentrations of Mach 2, 3, 4, and 7 for 22 hours and analyzed by flow cytometry.
(§1) HeLa 654 cells were maintained in MEM supplemented with 10% (v/v) fetal bovine serum (FBS) and 1% (v/v) penicillin-streptomycin at 37° C. and 5% CO2. Eighteen hours prior to treatment, the cells were plated at a density of 5,000 cells per well in a 96-well plate in MEM supplemented with 10% FBS and 1% penicillin-streptomycin. The day of the experiment, the 384 well plate containing the crude reaction mixtures in DMSO was diluted to 100 μM by the addition of 16.8 μL of PBS to the 3.2 μL reaction mixture. Then, each construct was diluted to 5 μM in MEM supplemented with 10% FBS and 1% penicillin-streptomycin. Cells were incubated with each conjugate at a concentration of 5 μM for 22 hours at 37° C. and 5% CO2. Next, the treatment media was aspirated the cells were incubated with Trypsin-EDTA 0.25% for 15 min at 37° C. and 5% CO2, washed 1× with PBS, and resuspended in PBS with 2% FBS and 2 μg/mL propidium iodide. Flow cytometry analysis was carried out on a BD LSRII flow cytometer. Gates were applied to the data to ensure that cells that were highly positive for propidium iodide or had forward/side scatter readings that were sufficiently different from the main cell population were excluded. Each sample was capped at 5,000 gated events.

[2] = tested on: HeLa 654 cells; assay: HeLa-654 eGFP assay (corrective splicing / exon skipping by PMO IVS2-654); format: cell-based, human; details: eGFP fluorescence of PMO-peptide conjugate relative to unconjugated PMO; 5 μM, 22 h
Procedure: With the 36 constructs synthesized, the ability to modulate PMO activity using the modified HeLa cell assay was tested. The HeLa-654 cells were stably transfected to express a nonfluorescent eGFP protein. The eGFP gene is interrupted by a mutant intron from the human β-globin gene (IVS2-654). The insertion alters pre-mRNA splicing to cause retention of a fragment in the mature mRNA that results in a nonfluorescent protein. PMO IVS2-654 base-pairs with the B-globin insertion, modifies mRNA splicing, and thereby leads to expression of fluorescent eGFP.
For treatment, the crude reaction mixture was diluted to 5 μM in media. The concentration of the modular construct was calculated based on the original concentration of the module 1-2 conjugate mixed in the reaction. Using media containing 10% fetal bovine serum (FBS), the cells were treated with each construct for 22 hours, after which the cellular fluorescence was measured by flow cytometry.
From the lists of hundreds of predicted peptide sequences, twenty candidates were selected that varied in length, charge, and predicted activity to synthesize and test. Just as with the PMO-peptide library, the PMO-Mach constructs were first tested for PMO delivery in the HeLa 654 assay at 5 μM in complete media for 22 hours and analyzed by flow cytometry (FIG. 14). Experiments were conducted using three technical triplicates and two or three biological replicates.
as §1
Analysis was conducted using Graphpad Prism 7. For each sample, the mean fluorescence intensity and the number of gated cells was measured (FIGS. 8 and 9) and the intensity multiplied by the cell number was calculated (FIG. 7).

Question: What does the source list for CC[C@H](C)[C@H](NC(=O)[C@H](CO)NC(=O)[C@H](CC(C)C)NC(=O)[C@H](CCCCN)NC(=O)CNC(=O)[C@H](CCCCN)NC(=O)[C@@H]1CCCN1C(=O)[C@H](Cc1c[nH]c2ccccc12)NC(=O)[C@H](CC(N)=O)NC(=O)[C@H](CCCCN)NC(=O)[C@H](CCCCN)NC(=O)[C@H](CC(N)=O)NC(=O)[C@H](C)NC(=O)[C@H](CCCCN)NC(=O)[C@H](CO)NC(=O)[C@H](CCCCN)NC(=O)[C@H](CCCNC(=N)N)NC(=O)[C@H](CCCCN)NC(=O)[C@H](CCCCN)NC(=O)[C@H](CCC(N)=O)NC(=O)CCCCn1nnc2c1-c1ccccc1N(C(=O)CCCCC(=O)N1C[C@@H](COP(=O)(N(C)C)N3C[C@@H](COP(=O)(N(C)C)N4C[C@@H](COP(=O)(N(C)C)N5C[C@@H](COP(=O)(N(C)C)N6C[C@@H](COP(=O)(N(C)C)N7C[C@@H](COP(=O)(N(C)C)N8C[C@@H](COP(=O)(N(C)C)N9C[C@@H](COP(=O)(N(C)C)N%10C[C@@H](COP(=O)(N(C)C)N%11C[C@@H](COP(=O)(N(C)C)N%12C[C@@H](COP(=O)(N(C)C)N%13C[C@@H](COP(=O)(N(C)C)N%14C[C@@H](COP(=O)(N(C)C)N%15C[C@@H](COP(=O)(N(C)C)N%16C[C@@H](COP(=O)(N(C)C)N%17C[C@@H](COP(=O)(N(C)C)N%18C[C@@H](COP(=O)(N(C)C)N%19C[C@@H](COP(=O)(N(C)C)N%20CCN(C(=O)OCCOCCOCCO)CC%20)O[C@@H](n%20cnc%21c(=O)[nH]c(N)nc%21%20)C%19)O[C@@H](n%19ccc(N)nc%19=O)C%18)O[C@@H](n%18cc(C)c(=O)[nH]c%18=O)C%17)O[C@@H](n%17cnc%18c(N)ncnc%18%17)C%16)O[C@@H](n%16cc(C)c(=O)[nH]c%16=O)C%15)O[C@@H](n%15cc(C)c(=O)[nH]c%15=O)C%14)O[C@@H](n%14cnc%15c(N)ncnc%15%14)C%13)O[C@@H](n%13ccc(N)nc%13=O)C%12)O[C@@H](n%12ccc(N)nc%12=O)C%11)O[C@@H](n%11cc(C)c(=O)[nH]c%11=O)C%10)O[C@@H](n%10cc(C)c(=O)[nH]c%10=O)C9)O[C@@H](n9cnc%10c(N)ncnc%109)C8)O[C@@H](n8cnc9c(N)ncnc98)C7)O[C@@H](n7ccc(N)nc7=O)C6)O[C@@H](n6ccc(N)nc6=O)C5)O[C@@H](n5ccc(N)nc5=O)C4)O[C@@H](n4cnc5c(N)ncnc54)C3)O[C@@H](n3cnc4c(=O)[nH]c(N)nc43)C1)Cc1ccccc1-2)C(=O)N[C@@H](Cc1c[nH]cn1)C(=O)N[C@@H](C)C(=O)N[C@@H](CCCCN)C(=O)N[C@@H](CC(=O)O)C(=O)N[C@@H](Cc1ccc(O)cc1)C(=O)N[C@@H](CCCCN)C(=O)N[C@@H](CCC(N)=O)C(=O)NCC(=O)N1CCC[C@H]1C(=O)N[C@@H](CCCCN)C(=O)N[C@@H](C)C(=O)N[C@@H](CCCCN)C(=O)NCCCCCC(=O)N[C@@H](CCCNC(=N)N)C(=O)N[C@@H](CCCCN)C(=O)N[C@@H](CCC(N)=O)C(=O)N[C@@H](CCCNC(=N)N)C(=O)NCCCCCC(=O)N[C@@H](CCCNC(=N)N)C(N)=O (some centres unmarked) [MACH 3]?
Answer: cytotoxicity as determined by cell count and PI staining [1]: no cytotoxicity; FOLD OVER PMO [2]: 38
